Test results: paper PMC5863767, “Mps1 Phosphorylates Its N-Terminal Extension to Relieve Autoinhibition and Activate the Spindle Assembly Checkpoint” (Current Biology, 2018)

Biological target: the molecule itself
Assay: cross-linking; BS3 cross-linking of purified GST-Mps1 (10:1 protein:BS3, 2 h on ice; 50 mM HEPES pH 7.5, 250 mM KCl, 0.05% NP-40, 1 mM DTT), NATIVE-PAGE, bands of cross-linked dimers excised, cross-linked peptides identified by mass spectrometry

B1: GST-Mps1-WT (enzyme, human, UniProt P33981 1-857, looked up)
chain: MESEDLSGRELTIDSIMNKVRDIKNKFKNEDLTDELSLNKISADTTDNSGTVNQIMMMANNPEDWLSLLLKLEKNSVPLSDALLNKLIGRYSQAIEALPPDKYGQNESFARIQVRFAELKAIQEPDDARDYFQMARANCKKFAFVHISFAQFELSQGNVKKSKQLLQKAVERGAVPLEMLEIALRNLNLQKKQLLSEEEKKNLSASTVLTAQESFSGSLGHLQNRNNSCDSRGQTTKARFLYGENMPPQDAEIGYRNSLRQTNKTKQSCPFGRVPVNLLNSPDCDVKTDDSVVPCFMKRQTSRSECRDLVVPGSKPSGNDSCELRNLKSVQNSHFKEPLVSDEKSSELIITDSITLKNKTESSLLAKLEETKEYQEPEVPESNQKQWQSKRKSECINQNPAASSNHWQIPELARKVNTEQKHTTFEQPVFSVSKQSPPISTSKWFDPKSICKTPSSNTLDDYMSCFRTPVVKNDFPPACQLSTPYGQPACFQQQQHQILATPLQNLQVLASSSANECISVKGRIYSILKQIGSGGSSKVFQVLNEKKQIYAIKYVNLEEADNQTLDSYRNEIAYLNKLQQHSDKIIRLYDYEITDQYIYMVMECGNIDLNSWLKKKKSIDPWERKSYWKNMLEAVHTIHQHGIVHSDLKPANFLIVDGMLKLIDFGIANQMQPDTTSVVKDSQVGTVNYMPPEAIKDMSSSRENGKSKSKISPKSDVWSLGCILYYMTYGKTPFQQIINQISKLHAIIDPNHEIEFPDIPEKDLQDVLKCCLKRDPKQRISIPELLAHPYVQIQTHPVNQMAKGTTEEMKYVLGQLVGLNSPNSILKAAKTLYEHYSGGESHNSSSSKTFEKKRGKK
notes: Mps1 kinase, human, wild type, full-length polypeptide; also called active Mps1; source: baculovirus-infected Sf9 cells, purified (glutathione-agarose, eluted with glutathione)
B1: binds.

B2: GST-Mps1-KD (enzyme, human, UniProt P33981 1-857, looked up)
chain: MESEDLSGRELTIDSIMNKVRDIKNKFKNEDLTDELSLNKISADTTDNSGTVNQIMMMANNPEDWLSLLLKLEKNSVPLSDALLNKLIGRYSQAIEALPPDKYGQNESFARIQVRFAELKAIQEPDDARDYFQMARANCKKFAFVHISFAQFELSQGNVKKSKQLLQKAVERGAVPLEMLEIALRNLNLQKKQLLSEEEKKNLSASTVLTAQESFSGSLGHLQNRNNSCDSRGQTTKARFLYGENMPPQDAEIGYRNSLRQTNKTKQSCPFGRVPVNLLNSPDCDVKTDDSVVPCFMKRQTSRSECRDLVVPGSKPSGNDSCELRNLKSVQNSHFKEPLVSDEKSSELIITDSITLKNKTESSLLAKLEETKEYQEPEVPESNQKQWQSKRKSECINQNPAASSNHWQIPELARKVNTEQKHTTFEQPVFSVSKQSPPISTSKWFDPKSICKTPSSNTLDDYMSCFRTPVVKNDFPPACQLSTPYGQPACFQQQQHQILATPLQNLQVLASSSANECISVKGRIYSILKQIGSGGSSKVFQVLNEKKQIYAIKYVNLEEADNQTLDSYRNEIAYLNKLQQHSDKIIRLYDYEITDQYIYMVMECGNIDLNSWLKKKKSIDPWERKSYWKNMLEAVHTIHQHGIVHSDLKPANFLIVDGMLKLIAFGIANQMQPDTTSVVKDSQVGTVNYMPPEAIKDMSSSRENGKSKSKISPKSDVWSLGCILYYMTYGKTPFQQIINQISKLHAIIDPNHEIEFPDIPEKDLQDVLKCCLKRDPKQRISIPELLAHPYVQIQTHPVNQMAKGTTEEMKYVLGQLVGLNSPNSILKAAKTLYEHYSGGESHNSSSSKTFEKKRGKK
notes: Mps1 kinase, human, kinase-dead, full-length polypeptide; also called kinase-dead (D664A); source: baculovirus-infected Sf9 cells, purified (glutathione-agarose, eluted with glutathione)
B2: binds.
